The text below walks through data of article PMC3448007.

The series has as its target NKX2.5 homeodomain (C56S) (Homo sapiens, UniProt P52952 137-197, C193S). Briefly: crystal structure.

NKX2.5 homeodomain (C56S), sequence (P52952 137-197 C193S): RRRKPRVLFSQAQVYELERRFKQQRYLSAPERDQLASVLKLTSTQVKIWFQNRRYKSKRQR

B1: ANF-242 19-bp (dsDNA)
DNA 1: TGAAGTGGGGGCCACTTGA
DNA 2: TCAAGTGGCCCCCACTTCA
Consider B1, for which the binding result is on record as “binds”.
